From article PMC4512712 (Biochemistry, 2015)
Substitutions are numbered along the chain they refer to. In names and notes the source's numbering stands. Several values for one entry are separate records, joined by “and”; a condition that tells them apart may be missing. Equal values may be shown once. Read-outs that look alike come from different tables or passages of the source.

B1: S135Q-HSPB5, full-length oligomer (natural protein)
chain: MDIAIHHPWIRRPFFPFHSPSRLFDQFFGEHLLESDLFPTSTSLSPFYLRPPSFLRAPSWFDTGLSEMRLEKDRFSVNLDVKHFSPEELKVKVLGDVIEVHGKHEERQDEHGFISREFHRKYRIPADVDPLTITQSLSSDGVLTVNGPRKQVSGPERTIPITREEKPAVTAAPKK
B2: Alpha-B-crystallin ACD ACD (protein)
chain: GLSEMRLEKDRFSVNLDVKHFSPEELKVKVLGDVIEVHGKHEERQDEHGFISREFHRKYRIPADVDPLTITSSLSSDGVLTVNGPRKQV
B3: E117C-ACD-only (HSPB5 residues 64-152, E117C) (domain or fragment)
chain: B2 chain with E54C
modifications: disulfide-locked dimer through C117 under nonreducing conditions
B4: HSPB6, full length, C46S (natural protein)
chain: MEIPVPVQPSWLRRASAPLPGLSAPGRLFDQRFGEGLLEAELAALSPTTLAPYYLRAPSVALPVAQVPTDPGHFSVLLDVKHFSPEEIAVKVVGEHVEVHARHEERPDEHGFVAREFHRRYRLPPGVDPAAVTSALSPEGVLSIQAAPASAQAPPPAAAK

What was measured:
SEC = biological target: the molecule itself; assay: SEC
[1] = biological target: the molecule itself
[2] = biological target: T1, Alpha-B-crystallin CTR CTR (Homo sapiens, UniProt P02511)
T1 chain: ERTIPITRE

[3] = biological target: B1; assay: SEC
[4] = biological target: T2, E117C-HSPB5, full length (oligomeric) (human, UniProt P02511 1-175, E117C); assay: cross-linking
T2 sequence: B1 chain with E117C, Q135S

[5] = biological target: T3, S135Q/E117C full-length HSPB5 oligomer (human, UniProt P02511 1-175, E117C | S135Q); assay: cross-linking
T3 sequence: B1 chain with E117C

[6] = biological target: B1; assay: SEC; remark: listed apart in the source
[7] = biological target: T4, ΔN-HSPB6 (residues 65-160) (human, UniProt O14558 65-160); assay: NMR titration
T4 sequence: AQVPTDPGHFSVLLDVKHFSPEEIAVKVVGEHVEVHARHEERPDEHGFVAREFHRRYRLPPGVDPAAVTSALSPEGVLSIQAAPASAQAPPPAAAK

Binder: B1
- binding result (SEC): binds

Binder: B2
- Kd [1]: ~2 µM
- Kd [2]: ~100 µM
- binding result [3]: binds

Binder: B3
- binding result [4]: binds
- binding result [5]: binds

Binder: B4
- binding result [6]: binds
- stoichiometry N (SEC): 2 and 4

Binder: PERTIPITREEK [HSPB5-CTR peptide PERTIPITREEK]
- binding result [7]: binds
